Biological target: recombinant human HIS-tagged CFP (human, UniProt P27918 28-469)
Assay: SPR

Chain of recombinant human HIS-tagged CFP (P27918 28-469): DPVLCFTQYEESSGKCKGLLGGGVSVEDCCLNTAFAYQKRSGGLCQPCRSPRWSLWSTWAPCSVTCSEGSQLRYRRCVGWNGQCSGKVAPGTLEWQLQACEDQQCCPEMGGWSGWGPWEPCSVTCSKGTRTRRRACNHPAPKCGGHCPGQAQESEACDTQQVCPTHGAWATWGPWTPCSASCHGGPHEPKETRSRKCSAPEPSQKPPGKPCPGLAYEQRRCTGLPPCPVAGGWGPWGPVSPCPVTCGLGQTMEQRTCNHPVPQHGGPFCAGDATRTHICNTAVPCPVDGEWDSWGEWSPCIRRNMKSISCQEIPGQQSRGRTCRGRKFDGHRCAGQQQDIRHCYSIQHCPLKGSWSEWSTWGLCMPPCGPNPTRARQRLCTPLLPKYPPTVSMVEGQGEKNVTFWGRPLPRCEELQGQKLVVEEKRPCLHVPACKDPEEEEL

- binding result: binds
B1: mouse NKp46-Fc (Fc fusion)
chain: QRINTEKETLPKPIIWAKPSIMVTNGNSVNIWCQGAQSASEYQLYFEGSFFALERPKPSRSMNKVRFFISQMTSHTAGIYTCFYQSGELWSKSSNPLKLVVTGLYDTPNLWVYPQPEVTLGENVTFFCQLKTATSKFFLLKERGSNHIQNKYGNIQAEFPMGPVTRAHRGTYRCFGSYNDYAWSFPSEPVTLLITGGVENSSLAPTDPTSSLDYWEFDLSTNESGLQKDSAFWDHTTQN

From article PMC5419422 (Science immunology, 2017)
